Data reported in paper PMC9667317, “Metal migration and subunit swapping in ALS-linked SOD1: Zn^2+ transfer between mutant and wild-type occurs faster than the rate of heterodimerization” (The Journal of Biological Chemistry, 2022).

Legend:
Conditions in all cases: both partners purified
[1] = molecular target: T1, WT Cu, Zn superoxide dismutase-1 (SOD1), recombinant human (human, UniProt P00441 1-154); experiment: capillary electrophoresis; both homodimers as 4Zn-SOD1; 15 μM dimer each ([SOD1]total = 30 μM), followed over time; 10 mM potassium phosphate pH 7.4, CE at 22 °C, storage at 15 °C; KHet assumed from the fit extrapolated to t = 5000 min
T1 construct: Cu, Zn superoxide dismutase-1 (SOD1), human; Homodimer; intramolecular disulfide bond intact; N-terminus probably acetylated (surmise); also called WT SOD1; WT apo-SOD1; source: demetalated by dialysis, remetalated with ZnSO4 where stated

[2] = molecular target: T1, WT Cu, Zn superoxide dismutase-1 …; experiment: capillary electrophoresis; binder (first named) as 4Zn-SOD1, target (second named, WT or TD) as apo-SOD1; 15 μM dimer each ([SOD1]total = 30 μM), followed over time; 10 mM potassium phosphate pH 7.4, CE at 22 °C, storage at 15 °C; KHet assumed from the fit extrapolated to t = 5000 min
[3] = molecular target: T1, WT Cu, Zn superoxide dismutase-1 …; experiment: capillary electrophoresis; binder (first named) as apo-SOD1, target (second named, WT or TD) as 4Zn-SOD1; 15 μM dimer each ([SOD1]total = 30 μM), followed over time; 10 mM potassium phosphate pH 7.4, CE at 22 °C, storage at 15 °C; KHet assumed from the fit extrapolated to t = 5000 min
[4] = molecular target: T1, WT Cu, Zn superoxide dismutase-1 …; experiment: capillary electrophoresis; both homodimers apo (metal-free, disulfide intact), mixed at 15 μM dimer each ([SOD1]total = 30 μM), followed over time; 10 mM potassium phosphate pH 7.4, CE at 22 °C, storage at 15 °C; KHet assumed from the fit extrapolated to t = 5000 min

T1 sequence (P00441 whole entry): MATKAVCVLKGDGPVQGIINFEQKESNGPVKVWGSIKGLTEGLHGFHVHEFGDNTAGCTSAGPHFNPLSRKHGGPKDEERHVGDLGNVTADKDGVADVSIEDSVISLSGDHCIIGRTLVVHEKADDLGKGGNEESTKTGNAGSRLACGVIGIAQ

B1: triply deamidated SOD1 (modeled with N26D/N131D/N139D substitutions), recombinant human (enzyme)
chain: not shown
notes: Cu, Zn superoxide dismutase-1 (SOD1), human, triple mutant N26D/N131D/N139D; printed mass of the apo subunit 15847 Da; Homodimer; disulfide intact; also called TD SOD1; TD; source: demetalated by dialysis, remetalated with ZnSO4 where stated
- assumed KHet (t = 5000 min) [1]: 2.13 ± 0.71
- kHet (rate constant of heterodimerization) [1]: 0.0038 min⁻¹
- assumed KHet (t = 5000 min) [2]: 2.09 ± 0.14
- kHet (rate constant of heterodimerization) [2]: 0.0041 min⁻¹
- assumed KHet (t = 5000 min) [3]: 2.27 ± 0.08
- kHet (rate constant of heterodimerization) [3]: 0.0066 min⁻¹
- assumed KHet (t = 5000 min) [4]: 2.34 ± 0.31
- kHet (rate constant of heterodimerization) [4]: 0.0128 min⁻¹
